Reference: a protein production outcome set (Wang et al. 2014)

Test: label from the status in PepcDB records

Sequence | protein production
MISFLLSLVLLIVGYFTYGKFVDKTFGTNDSIETPAESMADGVDYVPMSWPRIFLIQFLNIAGLGPIFGAIAGALWGPVAFLWIVFGCIFAGAVHDYFTGVLSIRNKGVSVAELVGKYLGEIPRKIMVIFSVVLLILVGVVFLTGPADLLKTLTGIDRDIFIVIIVVYYIAATVLPVDKVIGKIYPIFGLCLLIMAVGIGAGIVIEGYNIPEIQLANFHPEGTPIFPFLFITIACGAISGFHATQSPIMARCVKKESEARKVFYGAMIAEGVIALVWAAAAMSFFGDTNGLQEILKAGGPATVVNTISNTVMGKVGAVLAILGVVACPISSGDTAFRSARLTIADAFKLKQDKVIDRFKIAIPLFVVGIALTFIDFGIIWRYFSWSNQTLAMIMLWAASAYMLKAHNNYWITLVPAVFMSAVTCSYILQAPEGFRLNATFSNIAGVVFALVLFGIFIKYCKKENNENCEIVEIEEVKEVIKNK | failed
MISILLFALTSFLIGLSGAMAPGPLLTVTVSDSIRRGFRAGPLLVAGHVLGEALLVTLILMGLGYILRSGPAPAILGTAGGAVLIWMGILGFRDSEDTENIPEGGSILRGAIISFANPYFFLWWGAVGAALMYRGLELAGVLGLLAFLAGHWSSDLTWYSLVSFLSSRKSFRMNGRPYKIVMMILSLFLILFGVYFLIESLKAISGYS | failed
MISIVIPLYNQVAYTQLCVQSLRRAGLNGVDVLLIDNGSTDGTAEYLKSCSDLRVIRNRENLGCAGAWNQGVRETTSEWVMILNNDVVVSPGWLDGLLEAAGKEGLDVVSPAIREGEYNYDIEGYSQEFVGRMGDVVRRGVADGICFMVRRRVFEVVGLFDENFRIGQFEDADFFRRARNAGFRLGTTGRSFIHHFGSVTQDAIRKNRPERPYVAENRAYFREKWQLTRGRRLIERWRRKLREFAWQKCERMFHGHTLKEKWLGGRLRYYLEHHHHHH | failed
MISKAISAQCRHLHRAAVLVAVMSALAATGCSKKEAPQAPAPSAGTPQAGAPAAMPEGMSGQQQTAMGRAIFNKRCASCHGTDGNGAGSRSGPALDQAQFKYGRTPEAIRESIVKGRPNGMPAFGAAFQEIEIDTLVGYVMGLTKQ | failed
MISLQFFITAFVVVLAPGTGVIYTLAIGLGRGRSAAAWAALGCTLGILPHLAAAILGLAAILHSSALLFQLVKAAGVAYLLYLAWQALRSDGALAIRSEHSHQPGWRIAWRGALINILNPKLSVFFLALLPPFLSGNPASATAEMSLLGLVFMAMTFAVFLLYGAFASAARTYLMQSERALRWMGRGFALVFAGLAARLAMERA | failed
MISQASRFAPDQPPKLSCEYLTERVRALFGPHPFASQMSGDQVASLLPEYLAMSQAFPYLQAGSQRDLIFDAMHQNRDIGRDIELTSVVANFICWDETGGHGGILRGGKAALPDILLTENFHSNLLRKDAARLLGRAIRPNYSDRTKQYLHSLYAGLSSKDPLVRCAYMVAFELHAADMIQSLWTTLVKTFKARPDDLEYFRGHVGGEDPAEKYHGEMTGRLIGELVQPGLNDRFLNEFGRAYRLSVQWCRDLLGTAARTGDDHSEMQHHGRCHCGAIKFYVNAPRELSAVRCNCSICQMSGFVHLLVPGDKLRIECGEEFLTTYQFNKNIARHTFCRLCGVKPFYRPRSNPSGYSVNIRCLDRKTIEHLRISEFDGAHWEQAFLSMQQDPESCFEDQRSELEWRAQ | failed
MISTWHKNNNSPRLTVSARIVAKRQNTTYHNQPNAGDTSGAHGYHTTSSTTYYVTFQVESGDRIEMSVSGSEYGKLTEGDEGKLTFQGTRYLQFNMENLEHHHHHH | failed
MITGKRFKFILLTFIFAAGLFFTQAGILFAQDKPDALKLYRQGRSLDSIGRREDARAAYLSAIEICRNELKVNSKNMDSYAVYTWCLFRLGRYKDTELVCSDALKIGRDARIIETLAEAQFFLGNYKDSLRNMEMYIEMAPNGERISVAHFFVGEIYRNTKKYHKADIAYSISVHLEPSNSLWWYRLGIVREAAGEKEGAIAAYQTAVKLRPEFKEAAEALKRVKI | failed
MITIKKQEIVKLEDVLHLYQAVGWTNYTHQTEMLEQALSHSLVIYLALDGDAVVGLIRLVGDGFSSVFVQDLIVLPSYQRQGIGSSLMKEALGNFKEAYQVQLATEETEKNVGFYRSMGFEILSTYDCTGMIWINREK | not failed
MITKQDTIYEWIQNGQLEDALKALFQNIEEEPNTIENYINAGIVLADINEIEKAERFFQRAITIDDKNGAVYYNLANLYYDQGKYRDAIKLYQLASKYNMDKIDTNYMIGMSFNQLDAPTESLPYFMTAAELDKNQDAEVQFQYGLALCHLEMFNQAINQLKIVLDIDSKHVDALYNLGLATYMDTEDLDLAMSYFDKAISIDPNHLLSQHAKKTFEAIKNEEE | failed
